According to paper PMC8602370:
Several values for one entry are separate records, joined by “and”; a condition that tells them apart may be missing. Identical values can stand only once.

How the values were obtained:
[1] = target: PARP1 (residues 1 to 1014), P09874; experiment: SPR; biotinylated DNA SSB captured on a streptavidin chip, PARP1 (40 nM) flowed on to form a PARP1/DNA complex, then HPF1 injected at 62.5-2000 nM with 5 µM EB47 in the buffer; 25 mM HEPES pH 7.4, 250 mM NaCl, 0.1 mM TCEP, 1 mM EDTA, 0.05% Tween20; 1:1 model, steady-state plateaus and kinetic fit; settings: remark: other sources report otherwise
Sequence of PARP1 (residues 1 to 1014), P09874 (P09874 whole entry, the tested form may be a part): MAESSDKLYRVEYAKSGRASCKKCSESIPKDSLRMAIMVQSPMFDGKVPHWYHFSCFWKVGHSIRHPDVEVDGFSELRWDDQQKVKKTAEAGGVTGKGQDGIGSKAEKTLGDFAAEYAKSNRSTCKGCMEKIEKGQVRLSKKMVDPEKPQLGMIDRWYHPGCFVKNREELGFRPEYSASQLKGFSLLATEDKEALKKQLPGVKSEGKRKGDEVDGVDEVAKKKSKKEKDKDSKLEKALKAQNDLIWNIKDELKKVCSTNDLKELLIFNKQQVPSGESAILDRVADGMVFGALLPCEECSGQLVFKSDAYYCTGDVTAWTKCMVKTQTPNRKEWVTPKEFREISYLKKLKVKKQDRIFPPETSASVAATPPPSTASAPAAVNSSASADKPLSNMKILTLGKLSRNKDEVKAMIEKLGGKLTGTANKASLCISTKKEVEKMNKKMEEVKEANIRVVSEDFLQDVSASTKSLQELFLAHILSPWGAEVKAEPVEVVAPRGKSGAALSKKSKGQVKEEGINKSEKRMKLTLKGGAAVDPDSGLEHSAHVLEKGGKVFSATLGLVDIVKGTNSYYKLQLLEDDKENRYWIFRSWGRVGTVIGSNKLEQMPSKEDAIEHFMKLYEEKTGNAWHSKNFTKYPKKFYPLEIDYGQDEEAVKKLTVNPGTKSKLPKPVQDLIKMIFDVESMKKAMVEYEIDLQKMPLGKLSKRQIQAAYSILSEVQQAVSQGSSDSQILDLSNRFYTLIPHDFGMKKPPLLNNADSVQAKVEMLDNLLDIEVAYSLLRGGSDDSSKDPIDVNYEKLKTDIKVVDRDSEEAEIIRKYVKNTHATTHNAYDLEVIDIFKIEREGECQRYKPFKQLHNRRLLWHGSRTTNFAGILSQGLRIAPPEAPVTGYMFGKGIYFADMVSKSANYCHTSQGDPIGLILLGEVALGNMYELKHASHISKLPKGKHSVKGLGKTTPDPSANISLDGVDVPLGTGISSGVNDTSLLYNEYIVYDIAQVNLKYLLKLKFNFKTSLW

[2] = target: PARP1 (residues 1 to 1014), P09874; experiment: as above; settings: remark: other sources report otherwise; remark: listed apart in the source

- Kd [1]: 480 nM and 617 nM
- koff [1]: 0.071 s⁻¹
- kon [1]: 112000 M⁻¹ s⁻¹
- Kd [2]: 540 nM and 550 nM
- koff [2]: 0.06 s⁻¹
- kon [2]: 100000 M⁻¹ s⁻¹
B1: Histone PARylation Factor 1 (HPF1), Q9NWY4 1-346 (natural protein)
chain: MVGGGGKRRPGGEGPQCEKTTDVKKSKFCEADVSSDLRKEVENHYKLSLPEDFYHFWKFCEELDPEKPSDSLSASLGLQLVGPYDILAGKHKTKKKSTGLNFNLHWRFYYDPPEFQTIIIGDNKTQYHMGYFRDSPDEFPVYVGINEAKKNCIIVPNGDNVFAAVKLFLTKKLREITDKKKINLLKNIDEKLTEAARELGYSLEQRTVKMKQRDKKVVTKTFHGAGLVVPVDKNDVGYRELPETDADLKRICKTIVEAASDEERLKAFAPIQEMMTFVQFANDECDYGMGLELGMDLFCYGSHYFHKVAGQLLPLAYNLLKRNLFAEIIEEHLANRSQENIDQLAA
